Consider one substance from doi:10.1101/2023.06.26.546492.

The experiment concerns the target His-SUMO-tagged full-length SARS-CoV-2 nsp14 (SARS-CoV-2) (UniProt P0DTD1). The experiment in a line: MST.

On to “short SARS-CoV-2 nsp10 construct (from UniProt P0DTD1 4264-4385) (domain or fragment)”, for which the equilibrium dissociation constant (Kd) (as a rule, the equilibrium constant for the complex coming apart) stood at 13.9 µM.
